Measured values: patent publication US20180162928A1 (Janssen / Centocor, published 2018)
Substitutions are numbered along the chain they refer to.

B1: ISOP121BR5P1D10 (designed binder, not shown: small tags and cut ends)
chain: LPAPKNLVVSRVTEDSARLSWGKKSHFFDSFLIQYQESEKVGEAIVLTVPGSERSYDLTGLKPGTEYTVSIYGVYTRGQCEWESNQLSAIFFTT
notes: FN3 domain; E. coli lysate in the ELISA
B2: ISOP121BR5P1F10 (designed binder, not shown: small tags and cut ends)
chain: LPAPKNLVVSRVTEDSARLSWPLNLEYFDSFLIQYQESEKVGEAIVLTVPGSERSYDLTGLKPGTEYTVSIYGVYGRYGGPFVSNPLSAIFTT
notes: as for B1
B3: ISOP121BR5P1A7 (designed binder, not shown: small tags and cut ends)
chain: LPAPKNLVVSRVTEDSARLSWTTAFHNEYFDSFLIQYQESEKVGEAIVLTVPGSERSYDLTGLKPGTEYTVSIYGVYSRPKAEFTSNPLSAIFTT
notes: as for B1
B4: ISOP194BR9P1E4 (designed binder, not shown: small tags and cut ends)
chain: B3 chain with S78Q, P80G, K81Y, A82H, E83N, F84W, T85F
notes: as for B1
B5: ISOP194BR9P1G9 (designed binder, not shown: small tags and cut ends)
chain: B3 chain with S78I, P80V, K81Q, A82V, E83L, F84W, T85F
notes: as for B1
B6: ISOP194BR9P1H4 (designed binder, not shown: small tags and cut ends)
chain: B3 chain with R18C
notes: as for B1
B7: ISOP121GR5P1D7 (designed binder, not shown: small tags and cut ends)
chain: LPAPKNLVVSRVTEDSARLSWTAPDAAFDSFKIWYQERSIVGEAIFLLVPGSERSYDLTGLKPGTEYIVQIFGVKGGPYSNPLWAPFTT
notes: as for B1
B8: ISOP194HR9P1D11 (designed binder, not shown: small tags and cut ends)
chain: LPAPKNLVVSRVTEDSARLSWTAPDAAFDSFSILYGELIGDGEAIVLTVPGSERSYDLTGLKPGTEYTVYIFGVKGGRYSRPLSAIFTT
notes: as for B1
B9: ISOP121FR5P1H9 (designed binder, not shown: small tags and cut ends)
chain: B8 chain with L38T, I39A, G40P, D41I, T68V, F72Q, R78N, R81Q
notes: as for B1
B10: ISOP121HR5P1F2 (designed binder, not shown: small tags and cut ends)
chain: B8 chain with S32T, L38T, I39Y, G40S, D41G, T68V, R78K, Y79W
notes: as for B1
B11: ISOP194HR9P1B2 (designed binder, not shown: small tags and cut ends)
chain: B8 chain with T65S
notes: as for B1
B12: ISOP121AR5P1D11 (designed binder, not shown: small tags and cut ends)
chain: LPAPKNLVVSRVTEDSARLSWEWLEHFDSFLIQYQESEKVGEAIVLTVPGSERSYDLTGLKPGTEYTVSIYGVYQRKVEFHSNPLSAIFTT
notes: as for B1
B13: ISOP194AR9P1E8 (designed binder, not shown: small tags and cut ends)
chain: B12 chain with V48I
notes: as for B1
B14: ISOP194AR9P1E9 (designed binder, not shown: small tags and cut ends)
chain: B12 chain with E79N, H81Y
notes: as for B1
B15: ISOP194AR9P1C3 (designed binder, not shown: small tags and cut ends)
chain: B12 chain with E14Q, D15N, Q33H
notes: as for B1
B16: ISOP194AR9P1H9 (designed binder, not shown: small tags and cut ends)
chain: B12 chain with L31Q
notes: as for B1
B17: ISOP194AR9P1F2 (designed binder, not shown: small tags and cut ends)
chain: B12 chain with V9I, Q75N, E79N, H81Y
notes: as for B1
B18: ISOP194AR9P1C10 (designed binder, not shown: small tags and cut ends)
chain: B12 chain with L19P, Q75N, E79N, H81Y
notes: as for B1
B19: ISOP121BR5P1G3 (designed binder, not shown: small tags and cut ends)
chain: LPAPKNLVVSRVTEDSARLSWKQRTSFHFDSFLIQYQESEKVGEAIVLTVPGSERSYDLTGLKPGTEYTVSIYGVPFWQQWQPESNPLSAIFTT
notes: as for B1
B20: ISOP121BR5P1D6 (designed binder, not shown: small tags and cut ends)
chain: B19 chain with R24G, P76Q, F77L, W78L, Q79A, Q80N, W81D, Q82I, P83I, E84S
notes: as for B1
B21: ISOP194ER9P1A11 (designed binder, not shown: small tags and cut ends)
chain: LPAPKNLVVSRVTEDSARLSWTAPDAAFDSFRIAYYETMVSGEAIVLTVPGSERSYDLTGLKPGTEYAVIIKGVKGGKPSWPLSAIFTT
notes: as for B1
B22: ISOP194ER9P1A3 (designed binder, not shown: small tags and cut ends)
chain: B21 chain with K78M, P79V
notes: as for B1
B23: ISOP194ER9P1H9 (designed binder, not shown: small tags and cut ends)
chain: B21 chain with L61P
notes: as for B1
B24: ISOP194ER9P1G3 (designed binder, not shown: small tags and cut ends)
chain: B21 chain with V8I
notes: as for B1
B25: ISOP194BR9P1A5 (designed binder, not shown: small tags and cut ends)
chain: LPAPKNLVVSRVTEDSARLSWFNADEEYFDSFLIQYQESEKVGEAIVLTVPGSERSYDLTGLKPGTEYTVSIYGVYQRGYHNWFSNPLSAIFTT
notes: as for B1
B26: ISOP121BR5P1D11 (designed binder, not shown: small tags and cut ends)
chain: B25 chain with Q77V, G79A, Y80V, H81R, N82F, W83V, F84S
notes: as for B1
B27: ISOP194BR9P1C8 (designed binder, not shown: small tags and cut ends)
chain: B25 chain with F22Y, N23F, D25G, E27L, Y28W
notes: as for B1
B28: ISOP121AR5P1H1 (designed binder, not shown: small tags and cut ends)
chain: LPAPKNLVVSRVTEDSARLSWKQATKFVFDSFLIQYQESEKVGEAIVLTVPGSERSYDLTGLKPGTEYTVSIYGVPDWFVLESNPLSAIFTT
notes: as for B1
B29: ISOP121AR5P1E11 (designed binder, not shown: small tags and cut ends)
chain: B28 chain with K22S, Q23V, A24Q, K26S, D77L, F79H, V80G, L81F, E82D
notes: as for B1
B30: ISOP121BR5P1D7 (designed binder, not shown: small tags and cut ends)
chain: LPAPKNLGCFSRYRRLSRLSWETPYPSLSNFDSFLIQYQESEKVGEAIVLTVPGSERSYDLTGLKPGTEYTVSIYGVLKLSAAWWPSNPLSAIFTT
notes: as for B1
B31: ISOP121AR5P1B8 (designed binder, not shown: small tags and cut ends)
chain: LPAPKNLVISRVTEDSARLSWDKRTQFAFDSFLIQYQESEKVGEAIVLTVPGSERSYDLTGLKPGTEYTVSIYGVPTWSGRTQSNPLSAIFTT
notes: as for B1
B32: ISOP121AR5P1A10 (designed binder, not shown: small tags and cut ends)
chain: LPAPKNLVVSRVTEDSARLSWPDWSNSEYFDSFLIQYQESEKVGEAIVLTVPGSERSYDLTGLKPGTEYTVSIYGVYARHRLFVSNPLSAIFTT
notes: as for B1
B33: ISOP194AR9P1G7 (designed binder, not shown: small tags and cut ends)
chain: B32 chain with P22G, W24D, S25F, A78T, H80A, R81V, L82V, V84T
notes: as for B1
B34: ISOP121AR5P1C5 (designed binder, not shown: small tags and cut ends)
chain: LPAPKNLVVSRVTEDSARLSWKRSDDEWFDSFLIQYQESEKVGEAIILTVPGSERSYDLTGLKPGTEYTVSIYGVYQRAALWFSNPLSAIFTT
notes: as for B1
B35: ISOP194AR9P1E3 (designed binder, not shown: small tags and cut ends)
chain: B34 chain with I47V
notes: as for B1

Molecular target: human serum albumin (human) (UniProt P02768)
Assay: ELISA, lysate on plate-bound antigen

Sequence of human serum albumin (human) (P02768 25-609 limits assumed): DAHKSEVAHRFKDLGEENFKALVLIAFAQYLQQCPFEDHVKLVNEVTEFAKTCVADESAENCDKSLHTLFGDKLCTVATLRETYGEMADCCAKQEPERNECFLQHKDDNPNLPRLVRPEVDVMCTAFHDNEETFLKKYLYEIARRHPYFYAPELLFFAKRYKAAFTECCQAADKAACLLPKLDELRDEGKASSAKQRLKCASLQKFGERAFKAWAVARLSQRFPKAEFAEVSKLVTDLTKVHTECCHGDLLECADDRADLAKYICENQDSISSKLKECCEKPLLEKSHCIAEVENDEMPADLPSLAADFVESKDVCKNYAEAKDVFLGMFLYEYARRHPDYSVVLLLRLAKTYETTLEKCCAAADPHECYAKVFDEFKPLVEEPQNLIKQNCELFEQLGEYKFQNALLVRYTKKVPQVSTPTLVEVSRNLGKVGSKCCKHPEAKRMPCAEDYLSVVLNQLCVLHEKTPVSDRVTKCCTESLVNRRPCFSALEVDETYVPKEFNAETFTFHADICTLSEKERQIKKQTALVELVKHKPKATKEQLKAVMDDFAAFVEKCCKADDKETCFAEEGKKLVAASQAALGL

| ELISA HSA (RSU) | Binder |
| --- | --- |
| 880 RSU | B1 |
| 720 RSU | B2 |
| 1120 RSU | B3 |
| 1440 RSU | B4 |
| 960 RSU | B5 |
| 3840 RSU | B6 |
| 720 RSU | B7 |
| 1680 RSU | B8 |
| 880 RSU | B9 |
| 640 RSU | B10 |
| 1840 RSU | B11 |
| 1040 RSU | B12 |
| 67700 RSU | B13 |
| 1600 RSU | B14 |
| 5920 RSU | B15 |
| 11400 RSU | B16 |
| 7520 RSU | B17 |
| 15000 RSU | B18 |

| ELISA HSA (RSU) | Binder |
| --- | --- |
| 640 RSU | B19 |
| 880 RSU | B20 |
| 880 RSU | B21 |
| 800 RSU | B22 |
| 880 RSU | B23 |
| 720 RSU | B24 |
| 1280 RSU | B25 |
| 1120 RSU | B26 |
| 1280 RSU | B27 |
| 880 RSU | B28 |
| 720 RSU | B29 |
| 720 RSU | B30 |
| 560 RSU | B31 |
| 560 RSU | B32 |
| 560 RSU | B33 |
| 560 RSU | B34 |
| 800 RSU | B35 |

Molecular target: unrelated Fc-fused recombinant protein
Assay: ELISA, lysate on plate-bound antigen

| ELISA Fc Control (RSU) | Binder |
| --- | --- |
| 480 RSU | B1 |
| 560 RSU | B2 |
| 800 RSU | B3 |
| 640 RSU | B4 |
| 640 RSU | B5 |
| 3040 RSU | B6 |
| 720 RSU | B7 |
| 480 RSU | B8 |
| 720 RSU | B9 |
| 480 RSU | B10 |
| 400 RSU | B11 |
| 640 RSU | B12 |
| 6960 RSU | B13 |
| 5520 RSU | B14 |
| 56400 RSU | B15 |
| 21300 RSU | B16 |
| 1920 RSU | B17 |
| 38200 RSU | B18 |

| ELISA Fc Control (RSU) | Binder |
| --- | --- |
| 560 RSU | B19 |
| 560 RSU | B20 |
| 800 RSU | B21 |
| 560 RSU | B22 |
| 720 RSU | B23 |
| 560 RSU | B24 |
| 800 RSU | B25 |
| 800 RSU | B26 |
| 640 RSU | B27 |
| 880 RSU | B28 |
| 720 RSU | B29 |
| 800 RSU | B30 |
| 640 RSU | B31 |
| 1120 RSU | B32 |
| 1280 RSU | B33 |
| 640 RSU | B34 |
| 1120 RSU | B35 |

Molecular target: T1, recombinant biotinylated PD-L1 (rhPD-L1/Fc Chimera, R&D Systems 156-B7) (human, UniProt Q9NZQ7 19-238, biotinylated (sites not given))
T1 construct: Bought Fc chimera; also called human PD-L1
Assay: ELISA, lysate on plate-bound antigen
Description: Streptavidin-coated Maxisorp plates (Nunc catalog 436110) were blocked for 1 h in Starting Block T20 (Pierce) and then coated with biotinylated PD-L1 (using same antigen as in panning) or negative controls (an unrelated Fc-fused recombinant protein and human serum albumin) for 1 h. Plates were rinsed with TBST and diluted lysate was applied to plates for 1 h. Following additional rinses, wells were treated with HRP-conjugated anti-FN3 domain antibody (PAB25) for 1 h and then assayed with POD (Roche catalog 11582950001).

T1 sequence (Q9NZQ7 19-238, change not shown): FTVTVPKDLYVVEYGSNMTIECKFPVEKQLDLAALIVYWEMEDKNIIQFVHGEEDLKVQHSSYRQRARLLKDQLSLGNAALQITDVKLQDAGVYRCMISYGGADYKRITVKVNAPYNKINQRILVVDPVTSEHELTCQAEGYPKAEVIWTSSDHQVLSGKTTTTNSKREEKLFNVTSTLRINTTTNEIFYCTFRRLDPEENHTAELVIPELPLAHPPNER

| ELISA PD-L1 Fc (RSU) | Binder |
| --- | --- |
| 1.54e+06 RSU | B1 |
| 1.42e+06 RSU | B2 |
| 389000 RSU | B3 |
| 9.79e+06 RSU | B4 |
| 1.44e+07 RSU | B5 |
| 4.06e+06 RSU | B6 |
| 792000 RSU | B7 |
| 6.62e+06 RSU | B8 |
| 1.2e+06 RSU | B9 |
| 907000 RSU | B10 |
| 5.66e+06 RSU | B11 |
| 393000 RSU | B12 |
| 3.4e+06 RSU | B13 |
| 1.97e+07 RSU | B14 |
| 3.55e+06 RSU | B15 |
| 2.59e+06 RSU | B16 |
| 1.63e+07 RSU | B17 |
| 1.39e+07 RSU | B18 |

| ELISA PD-L1 Fc (RSU) | Binder |
| --- | --- |
| 771000 RSU | B19 |
| 2.44e+06 RSU | B20 |
| 4.35e+06 RSU | B21 |
| 2.36e+06 RSU | B22 |
| 3.04e+06 RSU | B23 |
| 4.29e+06 RSU | B24 |
| 3.18e+06 RSU | B25 |
| 2.44e+06 RSU | B26 |
| 6.11e+06 RSU | B27 |
| 1.48e+06 RSU | B28 |
| 1.84e+06 RSU | B29 |
| 12800 RSU | B30 |
| 592000 RSU | B31 |
| 789000 RSU | B32 |
| 1.59e+07 RSU | B33 |
| 732000 RSU | B34 |
| 4.57e+06 RSU | B35 |
